The target of assay [1] is T1, human LAG3 expressed on the cell surface (CHO-LAG3, 293T-LAG3 cells) (human, UniProt P18627 23-525).
T1 construct: Stably transfected CHO or HEK293T cells; also called Human LAG3 (CHO); Human LAG3 (293T)
T1 sequence: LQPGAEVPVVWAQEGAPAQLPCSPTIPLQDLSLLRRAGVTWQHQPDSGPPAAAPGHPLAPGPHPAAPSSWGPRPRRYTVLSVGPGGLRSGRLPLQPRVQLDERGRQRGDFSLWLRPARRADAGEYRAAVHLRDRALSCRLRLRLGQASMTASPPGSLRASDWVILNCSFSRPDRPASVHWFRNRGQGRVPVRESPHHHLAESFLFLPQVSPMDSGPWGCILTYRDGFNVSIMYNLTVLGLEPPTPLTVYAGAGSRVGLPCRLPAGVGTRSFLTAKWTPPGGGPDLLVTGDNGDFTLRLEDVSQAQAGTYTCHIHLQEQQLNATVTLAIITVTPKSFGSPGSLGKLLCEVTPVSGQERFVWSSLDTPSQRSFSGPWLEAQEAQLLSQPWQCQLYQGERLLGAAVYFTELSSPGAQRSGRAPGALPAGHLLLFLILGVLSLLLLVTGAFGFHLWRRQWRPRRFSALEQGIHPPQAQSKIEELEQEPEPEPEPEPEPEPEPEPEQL
The assay can be described thus: flow cytometry, CHO cells expressing human LAG3. The procedure: LAG3 antibody variants were tested in a fluorescence-activated cell sorting (FACS) cell-binding assay. Chinese Hamster Ovary (CHO) cells or HEK293T cells stably expressing the human target molecule LAG3 on the cell surface (CHO-LAG3, 293T-LAG3) were used to screen for cell binders by flow cytometry. Parental CHO or 293T cells were used as a negative control to determine background-binding levels. Cells were cultured in RPMI with 10% FCS Penicillin/Streptomycin (or Pen/Strep) and glutamine (or Gln) and split every 3-4 days at 10⁵ cells/ml.
A mix of parental CHO cells and CHO-LAG3 cells (or 293T and 293T-LAG3 cells) was prepared as follows: Parental CHO cells were washed 2× in PBS then incubated in PBS containing 1 nM CellTrace™ Oregon Green488® (Life Technologies) at 37° C. for 30 minutes. […] Parental CHO cells and CHO-LAG3 cells were then mixed to obtain a 1:1 cell suspension and seeded at 100 μl per well on 96 well polypropylene plates. Plates were spun at 1500 rpm for 5 minutes and cell pellets were suspended in 50 μl FACS buffer containing 6-12 point dilutions of anti-LAG3 variants starting from concentrations of ˜100-200 nM antibody, dispensed using BioMekFX (Beckman Coulter). Cells were then incubated on ice for 1 hr, washed with FACS buffer and incubated for 1 hr on ice with 50 μl FACS buffer containing 2.5 μg/ml R-Phycoerythrin-conjugated Goat Anti-Human IgG (Jackson ImmunoResearch) or AF647-conjugated Goat Anti-mouse IgG (Life Technologies) dispensed using BioMekFX (Beckman Coulter). Cells were then washed 2× with FACS buffer and fixed for 10 minutes in 200 μl PBS with 2% PFA prior to fluorescence detection. Samples were acquired using a Beckton Dickinson LSRII FACS. Mean Fluorescence Intensity of LAG3 antibody binding was analyzed using Tree Star, Inc. FlowJo® software.
A general note: Flow cytometry measures light scatter and fluorescence of single cells or particles in a stream.

Assay [2] addresses T2, human LAG3-Fc (R&D Systems #2319-L3) (human, UniProt P18627 23-450).
T2 construct: Bought protein; also called Human LAG3 (Biacore)
T2 sequence: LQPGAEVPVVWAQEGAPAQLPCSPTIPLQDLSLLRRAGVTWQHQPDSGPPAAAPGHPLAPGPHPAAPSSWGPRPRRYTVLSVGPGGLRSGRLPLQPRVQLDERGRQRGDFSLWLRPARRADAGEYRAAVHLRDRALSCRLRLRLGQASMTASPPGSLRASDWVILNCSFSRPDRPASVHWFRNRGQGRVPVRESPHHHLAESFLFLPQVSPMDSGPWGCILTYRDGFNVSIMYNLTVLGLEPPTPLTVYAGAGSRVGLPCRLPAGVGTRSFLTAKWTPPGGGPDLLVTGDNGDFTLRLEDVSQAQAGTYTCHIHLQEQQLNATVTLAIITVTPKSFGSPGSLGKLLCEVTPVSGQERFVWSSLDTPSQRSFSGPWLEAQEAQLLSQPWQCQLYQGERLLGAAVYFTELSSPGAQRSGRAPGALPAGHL
The experiment in a line: SPR (Biacore), antibody captured by anti-Flag, LAG3-Fc as analyte, 25 C. The procedure:
Anti-Flag M2 IgG (Sigma-Aldrich # F9291) was immobilized onto a CMS chip (GE Life Sciences) using amine coupling chemistry (from Amine Coupling Kit, GE Life Sciences). The immobilization steps were carried out at a flow rate of 25 μL/min in 1×HBS-EP+ buffer (GE Life Sciences; 10×Stock diluted before use). The sensor surfaces were activated for 7 min with a mixture of NHS (0.05 M) and EDC (0.2 M). The Anti-Flag M2 IgG was injected over all 4 flow cells at a concentration of 25 μg/mL in 10 mM sodium acetate, pH 4.5, for 7 min. Ethanolamine (1 M, pH 8.5) was injected for 7 min to block any remaining activated groups. An average of 12,000 response units (RU) of capture antibody was immobilized on each flow cell.
Off-rate and kinetic binding experiments were performed at 25° C. using 1×HBS-EP+buffer. Test and control antibodies were injected over the Anti-Flag surface at concentrations of 5-10 μg/mL for 12 seconds at a flow rate of 10 μL/min on flow cells 2, 3 and 4, followed by a buffer wash for 30 seconds at the same flow rate. Kinetic characterization of antibody samples was carried out with a single concentration of antigen (for off-rate ranking) or a dilution series of antigen (for kinetic characterization) and 1 injection of 0 nM antigen. After capturing ligand (antibody) on the anti-Flag surface, the analyte (human LAG3-Fc, R&D Systems #2319-L3; or cynomolgus LAG3-Fc, accession # NC 022282.1) was bound at 50, 25, 12.5, 6.25, and 0 nM for 180 seconds, followed by a 600 second dissociation phase at a flow rate of 50 μl/min Between each ligand capture and analyte binding cycle, regeneration was carried out using 2 injections of 10 mM glycine pH 2.0 for 30 seconds at 30 μL/min, followed by a 30 second buffer wash step.
The data were fit with the Biacore T200 Evaluation software, using a 1:1 Langmuir binding model. KD (affinity, nM) was determined as a ratio of the kinetic rate constants calculated from the fits of the association and dissociation phases.
Background: Surface plasmon resonance follows binding to a sensor surface in real time, without labels.

Assay [3] concerns the target T3, recombinant human LAG3 protein (rhLAG3), HIS-tagged (ACRO) or biotinylated (R&D Cat #2319-C3) (human, UniProt P18627 23-450, biotinylated in part of the assays).
T3 sequence: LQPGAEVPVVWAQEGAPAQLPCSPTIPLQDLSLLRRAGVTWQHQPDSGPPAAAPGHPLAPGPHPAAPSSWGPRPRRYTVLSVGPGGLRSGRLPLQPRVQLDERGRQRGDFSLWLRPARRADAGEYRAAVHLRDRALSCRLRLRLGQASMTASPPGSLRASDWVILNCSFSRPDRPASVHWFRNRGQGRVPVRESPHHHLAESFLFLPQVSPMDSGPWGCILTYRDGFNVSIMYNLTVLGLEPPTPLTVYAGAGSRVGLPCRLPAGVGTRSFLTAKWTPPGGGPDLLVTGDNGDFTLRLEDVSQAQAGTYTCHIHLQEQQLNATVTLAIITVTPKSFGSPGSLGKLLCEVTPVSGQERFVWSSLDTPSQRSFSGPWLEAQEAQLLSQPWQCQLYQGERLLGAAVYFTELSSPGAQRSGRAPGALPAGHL
The assay can be described thus: flow cytometry competition, rhLAG3 binding to Daudi cells; competitor MHCII. The procedure: DAUDI cells express high levels of Major Histocompatibility Class II (MHCII) molecules, a natural ligand for LAG3, on the cell surface. DAUDI cells were used to screen for antibodies that inhibit binding of HIS-tagged (ACRO) or biotinylated recombinant human LAG3 protein (rhLAG3) to MHCII expressed on the cell surface.
DAUDI cells were cultured in RPMI w/10% FCS Pen/Strep and Gln and split every 3-4 days at 10^5 cells/ml. Cells were washed 2× with FACS buffer (PBS w/2% FCS), […] at a final concentration of 1×10⁶ cells/ml and seeded at 100 μl per well on 96 well polypropylene plates. Plates were spun at 1500 rpm for 5 minutes and cell pellets were suspended in 50 μl FACS buffer containing 8 point 1:3 dilutions (2× concentrated) of anti-LAG3 antibody variants, starting from high concentration of −600 nM. 50 μl FACS buffer containing 10-20 μg/ml of the HIS-tagged rhLAG3 protein or 40 μg/ml of the biotinylated rhLAG3 protein were then added to the cells. Cell were then incubated in ice for 1 hr, washed with FACS buffer and incubated for 1 hr in ice with 50 μl FACS buffer containing 2 μg/ml R-Phycoerythrin-conjugated Streptavidin (eBiosciences) or 1 μg/ml R-Phycoerythrin-conjugated anti-HIS IgG (Abcam). Cell were washed 2× with FACS buffer and fixed for 10 minutes in 200 μl PBS w/2% PFA prior to acquisition.

Assay [4] has as its target T4, human PD-1 expressed on the surface of CHO cells (human, UniProt Q15116 25-288).
T4 construct: I took it as human PD-1; also called CHO-PD1
The assay can be described thus: flow cytometry, CHO-PD1 cells. On the procedure: CHO-k cells stably expressing PD-1 or LAG3 (human or cynomolgus) on the cell surface were used to assess binding affinity of anti-PD-1/LAG3 bispecific antibody constructs. Cells were seeded at 100,000 cells/well in 100 μL of FACS buffer (1×PBS, 0.5% BSA, 0.1% sodium azide) in 96-well polypropylene plates. The cells were centrifuged at 1.5K rpm and resuspended with test antibodies diluted in FACS buffer and incubated on ice for 1 hour. The cells were washed twice with FACS buffer and incubated on ice for 30 mins with R-Phycoerythrin-AffiniPure F(ab′)2 Fragment Goat Anti-Human IgG (H+L) secondary detection antibody (1:200 dilution, Jackson ImmunoResearch Laboratories, West Grove, Pa.). The cells were washed twice with FACS buffer, fixed in 4% paraformaldehyde in PBS (Santa Cruz Biotechnology; Dallas, Tex.) for 20 mins on ice in the dark, washed twice with FACS buffer, and analyzed using the BD LSR II Flow Cytometer (BD Biosciences; San Jose, Calif.). Data were analyzed using FlowJo (FlowJo, LLC; Ashland, Oreg.) to determine mean fluorescence intensities. Binding constants were calculated using the statistical software, GraphPad Prism (GraphPad Software; La Jolla, Calif.) using the nonlinear regression equation, one site—specific binding with Hill slope. The secondary antibody by itself was used as a control.

T4 sequence (Q15116 25-288 limits assumed): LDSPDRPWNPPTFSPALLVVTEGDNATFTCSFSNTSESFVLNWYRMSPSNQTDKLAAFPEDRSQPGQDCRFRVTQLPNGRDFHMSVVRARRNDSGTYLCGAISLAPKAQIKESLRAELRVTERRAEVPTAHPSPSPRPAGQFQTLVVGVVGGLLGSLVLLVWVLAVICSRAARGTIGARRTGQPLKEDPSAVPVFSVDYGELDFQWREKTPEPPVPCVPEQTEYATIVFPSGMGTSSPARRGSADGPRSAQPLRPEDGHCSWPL

B1: SRP1449-B03 (scFv, V domains shown)
VH: QVQLVESGGGVVQPGRSLRLSCAASGFTFSSYGMHWVRQAPGKGLEWVAAIWYDASYKYYADSVKGRFTISRDNSKNTLYLQMNSLRAEDTAVYYCAREWAVASWDYALDVWGQGTTVTVSS
VL: EIVLTQSPGTMSLSPGERATLSCRASQSVSSSYLAWYQQKPGQAPRLLIYGASSRATGIPDRFSGSGSGTDFTLTISRLEPEDFAVYYCQQYDRSPLTFGPGTKVDIK
As usually defined, the Kd is the constant that tells how readily two partners part at equilibrium. A low value points to tighter binding. As a reminder, the koff is the first-order rate constant of dissociation. By kon is commonly meant a measure of how fast the partners come together. A lower kon goes with slower complex formation. One may read the IC50 as the midpoint of a concentration-inhibition curve. Regarding B1, in assay [1], the Kd amounted to 1.92 nM. In addition, in assay [2], the dissociation constant (Kd) is 0.64 nM, the koff is 0.000302 s⁻¹ and the association rate constant (kon) amounted to 472000 M⁻¹ s⁻¹. Further, the half-maximal inhibitory concentration (IC50) in assay [3] worked out at 1 nM.

B2: SRP1449-B07 (scFv, V domains shown)
VH: QVQLVESGGGVVQPGRSLRLSCAASGFTFSSYGMHWVRQAPGKGLEWVAVIWYDGSNKYYADSVKGRFTISRDNSKNTLYLQMNSLRAEDTAVYYCAREWAVSSWDYGMDVWGQGTTVTVSS
VL: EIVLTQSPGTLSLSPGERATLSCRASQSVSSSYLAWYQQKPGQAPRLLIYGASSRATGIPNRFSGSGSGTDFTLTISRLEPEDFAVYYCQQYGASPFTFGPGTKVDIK
Molecule B2 returned an equilibrium dissociation constant (Kd) in assay [1] of 1.06 nM. Moreover, in assay [2], the equilibrium dissociation constant (Kd) was found to be 0.676 nM, the koff was found to be 0.000536 s⁻¹ and the kon was determined as 794000 M⁻¹ s⁻¹. Further, in assay [3], the IC50 was 1.2 nM.

B3: 421.61.4.5G11 (antibody, V domains shown)
VH: EVQLQQSGAELVRSGASVKLSCTASGFNIKDYYMHWVKQRPEQGLEWIAWIDPENGDTEYAPKFQGRATLTADTSSNTAYLHLSSLTSEDTAVYYCNAPDALDYWGQGTSVTVSS
VL: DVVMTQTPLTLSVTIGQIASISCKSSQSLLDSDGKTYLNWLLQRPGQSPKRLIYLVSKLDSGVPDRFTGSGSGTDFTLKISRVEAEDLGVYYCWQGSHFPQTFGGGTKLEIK
In assay [1], B3 displayed a Kd of 18 nM. In assay [2], this molecule came in with a dissociation constant (Kd) of 10.3 nM, an off-rate (koff) of 0.000515 s⁻¹ and an association rate constant (kon) of 50200 M⁻¹ s⁻¹. Besides, the IC50 in assay [3] stood at 64.3 nM.

B4: Construct G: aPD1 1353-G10 Fab_K × aLAG3 1449-G09.2 scFvFc_H (three-chain Fab x scFvFc) (bispecific antibody, human IgG1, lambda)
heavy: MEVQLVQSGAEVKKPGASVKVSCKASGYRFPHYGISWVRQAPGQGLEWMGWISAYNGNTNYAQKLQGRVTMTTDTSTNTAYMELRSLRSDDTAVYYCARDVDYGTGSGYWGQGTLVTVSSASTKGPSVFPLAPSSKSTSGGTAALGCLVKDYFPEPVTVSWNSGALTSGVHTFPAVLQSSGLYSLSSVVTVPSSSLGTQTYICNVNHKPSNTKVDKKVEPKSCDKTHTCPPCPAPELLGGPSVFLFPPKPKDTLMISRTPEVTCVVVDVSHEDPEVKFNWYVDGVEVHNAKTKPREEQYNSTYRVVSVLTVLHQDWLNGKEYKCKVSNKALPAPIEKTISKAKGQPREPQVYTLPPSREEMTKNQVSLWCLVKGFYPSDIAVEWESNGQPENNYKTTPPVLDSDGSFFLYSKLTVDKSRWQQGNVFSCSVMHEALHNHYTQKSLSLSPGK
light: MSYELTQPPSVSVSPGQTARITCSGDALPKQYAYWYQQKPGQAPVMVIYKDTERPSGIPERFSGSSSGTKVTLTISGVQAEDEADYYCQSADNSITYRVFGGGTKVTVLGQPKAAPSVTLFPPSSEELQANKATLVCLISDFYPGAVTVAWKADSSPVKAGVETTTPSKQSNNKYAASSYLSLTPEQWKSHRSYSCQVTHEGSTVEKTVAPTECS
scFv: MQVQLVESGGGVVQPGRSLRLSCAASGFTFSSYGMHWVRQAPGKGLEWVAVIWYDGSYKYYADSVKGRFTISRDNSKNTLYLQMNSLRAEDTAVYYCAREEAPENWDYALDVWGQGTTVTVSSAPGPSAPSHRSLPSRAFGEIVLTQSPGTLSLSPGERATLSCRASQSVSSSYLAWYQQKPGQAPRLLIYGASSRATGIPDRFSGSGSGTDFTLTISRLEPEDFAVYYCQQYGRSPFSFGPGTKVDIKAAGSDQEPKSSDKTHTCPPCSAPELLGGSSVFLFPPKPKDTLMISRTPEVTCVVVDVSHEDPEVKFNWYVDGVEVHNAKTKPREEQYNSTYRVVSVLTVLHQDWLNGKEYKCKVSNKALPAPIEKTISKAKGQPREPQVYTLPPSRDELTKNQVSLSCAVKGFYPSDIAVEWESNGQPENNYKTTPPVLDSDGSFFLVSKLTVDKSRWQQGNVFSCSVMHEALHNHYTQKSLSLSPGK
In assay [4], B4 returned a Bmax of 6380 and a dissociation constant (Kd) of 0.8 nM.

B5: Construct H: aPD1 1353-G10 Fab_H × aLAG3 1449-G09.2 scFvFc_K (three-chain Fab x scFvFc) (bispecific antibody, human IgG1, lambda)
heavy: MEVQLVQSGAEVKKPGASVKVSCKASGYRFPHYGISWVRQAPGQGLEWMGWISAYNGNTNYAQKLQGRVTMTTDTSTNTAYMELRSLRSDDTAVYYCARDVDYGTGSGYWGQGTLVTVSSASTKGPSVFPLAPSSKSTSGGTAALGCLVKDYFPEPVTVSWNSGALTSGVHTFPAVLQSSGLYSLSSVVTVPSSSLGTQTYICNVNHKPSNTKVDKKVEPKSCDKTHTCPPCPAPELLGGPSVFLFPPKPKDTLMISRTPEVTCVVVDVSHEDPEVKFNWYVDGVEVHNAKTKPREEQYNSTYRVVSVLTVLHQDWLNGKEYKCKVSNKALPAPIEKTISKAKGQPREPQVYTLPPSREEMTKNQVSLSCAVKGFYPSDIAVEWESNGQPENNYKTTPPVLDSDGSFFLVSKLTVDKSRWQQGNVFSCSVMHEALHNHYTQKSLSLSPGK
light: MSYELTQPPSVSVSPGQTARITCSGDALPKQYAYWYQQKPGQAPVMVIYKDTERPSGIPERFSGSSSGTKVTLTISGVQAEDEADYYCQSADNSITYRVFGGGTKVTVLGQPKAAPSVTLFPPSSEELQANKATLVCLISDFYPGAVTVAWKADSSPVKAGVETTTPSKQSNNKYAASSYLSLTPEQWKSHRSYSCQVTHEGSTVEKTVAPTECS
scFv: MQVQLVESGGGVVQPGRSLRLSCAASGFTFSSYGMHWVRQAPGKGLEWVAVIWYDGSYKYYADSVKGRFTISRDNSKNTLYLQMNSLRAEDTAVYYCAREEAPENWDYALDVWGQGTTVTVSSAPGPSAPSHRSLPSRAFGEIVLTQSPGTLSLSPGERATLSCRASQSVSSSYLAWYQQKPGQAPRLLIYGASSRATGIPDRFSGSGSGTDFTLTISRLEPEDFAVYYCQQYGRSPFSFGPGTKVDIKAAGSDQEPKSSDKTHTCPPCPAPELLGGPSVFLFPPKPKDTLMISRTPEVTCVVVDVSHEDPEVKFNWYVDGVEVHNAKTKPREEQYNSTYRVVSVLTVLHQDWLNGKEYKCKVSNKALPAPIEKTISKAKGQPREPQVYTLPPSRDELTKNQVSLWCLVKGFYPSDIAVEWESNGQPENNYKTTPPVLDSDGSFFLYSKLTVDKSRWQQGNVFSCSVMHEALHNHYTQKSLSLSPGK
As for B5, in assay [4], the Bmax came out at 5460 and the dissociation constant (Kd) was determined as 0.4 nM.
